1 molecule from publication PMC4191604 (Journal of Medicinal Chemistry, 2014) can be followed below.

Where a chain is given by its changes, count along the chain named. Some results are limits rather than exact numbers.

Assay in all cases: SPR
Background: Surface plasmon resonance follows binding to a sensor surface in real time, without labels.

One assay concerns the target T1, GBP1 mutant R227A/K228A (human, UniProt P32455 1-592, R227A | K228A).
T1 sequence (looked up): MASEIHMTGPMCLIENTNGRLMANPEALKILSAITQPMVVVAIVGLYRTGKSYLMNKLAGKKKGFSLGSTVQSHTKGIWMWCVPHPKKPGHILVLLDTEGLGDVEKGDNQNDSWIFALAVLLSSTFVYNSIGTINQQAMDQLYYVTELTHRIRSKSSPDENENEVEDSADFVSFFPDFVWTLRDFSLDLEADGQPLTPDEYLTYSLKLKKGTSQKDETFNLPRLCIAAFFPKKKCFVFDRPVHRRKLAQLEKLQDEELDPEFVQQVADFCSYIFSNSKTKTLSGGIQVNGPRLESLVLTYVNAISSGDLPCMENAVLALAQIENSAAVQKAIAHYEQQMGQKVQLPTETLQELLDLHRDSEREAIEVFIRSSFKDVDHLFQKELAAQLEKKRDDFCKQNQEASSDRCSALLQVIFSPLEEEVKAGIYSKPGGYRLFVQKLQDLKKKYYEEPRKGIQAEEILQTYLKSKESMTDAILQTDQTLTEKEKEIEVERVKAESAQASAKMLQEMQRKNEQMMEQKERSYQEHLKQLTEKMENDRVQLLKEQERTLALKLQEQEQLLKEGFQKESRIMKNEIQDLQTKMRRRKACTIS

The target of a further assay is T2, GBP1 mutant R227E/K228E (human, UniProt P32455 1-592, R227E | K228E).
T2 sequence (looked up): T1 sequence (looked up) with A227E, A228E

In a further assay the target is T3, GBP1 mutant R48A (human, UniProt P32455 1-592, R48A).
T3 sequence (looked up): T1 sequence (looked up) with R48A, A227R, A228K

A further assay concerns the target T4, GBP1 mutant K51A (human, UniProt P32455 1-592, K51A).
T4 sequence (looked up): T1 sequence (looked up) with K51A, A227R, A228K

A word on the Kd: it is the concentration at which binding is half-saturated.

B1: PIM1 (recombinant) (enzyme)
chain: not shown
As to B1, the Kd with GBP1 mutant R227A/K228A was 61 ± 4 nM; in the assay with GBP1 mutant R227E/K228E it was over 10000 nM; with GBP1 mutant R48A, 21 ± 0.1 nM; in the assay with GBP1 mutant K51A, 26 ± 11 nM.
